Results taken from US20260001928A1 (CORTERIA PHARMACEUTICALS, priority 2022, published 2026).
Values belong to the binder of their own block, whether it stands above or below them. *1 amine or outer side, *2 acyl side, *3 side chain or, on linkers, in order; H or OH if unused. Where no end group is shown, it is not given here. Side-chain parts run from the residue outwards. [ ]: non-standard residue; d: D form. The star is where a group is joined. C20 diacid = O=C(O)CCCCCCCCCCCCCCCCCCC(=O)*; γGlu = O=C(O)[C@H](CCC(=O)[*:2])N[*:1]; NMeI = CC[C@H](C)[C@H](NC)C(=O)O; AEEA = NCCOCCOCC(=O)O; Aib = CC(C)(N)C(=O)O

Columns and labels:
[1] = target: T1, CRF1R (corticotropin-releasing factor receptor 1), on the CRF1R-overexpression CHO-K1 cell line clone 2 (UniProt P34998 24-415, limits assumed); experiment: cell-based or functional assay
T1 sequence (looked up): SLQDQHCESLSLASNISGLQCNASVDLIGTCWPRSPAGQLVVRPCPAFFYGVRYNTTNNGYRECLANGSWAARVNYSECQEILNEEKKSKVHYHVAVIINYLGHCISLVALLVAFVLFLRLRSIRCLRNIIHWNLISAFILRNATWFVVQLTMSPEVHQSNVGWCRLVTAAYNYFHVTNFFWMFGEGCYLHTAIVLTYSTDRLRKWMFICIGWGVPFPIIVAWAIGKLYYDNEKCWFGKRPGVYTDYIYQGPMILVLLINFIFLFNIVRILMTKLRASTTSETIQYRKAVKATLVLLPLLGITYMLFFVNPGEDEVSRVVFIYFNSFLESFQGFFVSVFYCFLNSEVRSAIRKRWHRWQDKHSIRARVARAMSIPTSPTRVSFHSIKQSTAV

[2] = target: Rat CRF2 a (corticotropin-releasing factor receptor 2), on the A7R5 rat aortic smooth muscle cell line (rat, UniProt P47866 20-411); experiment: cell-based or functional assay
Sequence of Rat CRF2 a (corticotropin-releasing factor receptor 2), on the A7R5 rat aortic smooth muscle cell line (P47866 20-411): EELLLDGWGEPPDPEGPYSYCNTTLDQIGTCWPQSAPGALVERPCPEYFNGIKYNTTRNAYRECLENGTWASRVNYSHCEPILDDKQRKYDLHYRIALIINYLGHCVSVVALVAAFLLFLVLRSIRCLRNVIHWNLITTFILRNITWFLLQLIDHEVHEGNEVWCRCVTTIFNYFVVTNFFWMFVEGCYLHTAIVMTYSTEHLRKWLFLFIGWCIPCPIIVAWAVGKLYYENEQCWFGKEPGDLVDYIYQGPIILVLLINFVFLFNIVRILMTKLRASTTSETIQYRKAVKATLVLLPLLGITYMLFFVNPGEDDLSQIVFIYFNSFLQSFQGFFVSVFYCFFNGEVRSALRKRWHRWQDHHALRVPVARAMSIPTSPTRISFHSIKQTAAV

B2: peptide of SEQ ID NO: 234 (peptide)
peptide: [NMeI]VLSLD[dV]PIKLK([AEEA-γGlu-C20 diacid])KILLEQEKQK[Aib]QREQAETN[Aib]QILAQV-NH2
modifications: N-terminus assumed
SMILES: CC[C@H](C)[C@H](NC)C(=O)N[C@H](C(=O)N[C@@H](CC(C)C)C(=O)N[C@@H](CO)C(=O)N[C@@H](CC(C)C)C(=O)N[C@@H](CC(=O)O)C(=O)N[C@@H](C(=O)N1CCC[C@H]1C(=O)N[C@H](C(=O)N[C@@H](CCCCN)C(=O)N[C@@H](CC(C)C)C(=O)N[C@@H](CCCCNC(=O)COCCOCCNC(=O)CC[C@H](NC(=O)CCCCCCCCCCCCCCCCCCC(=O)O)C(=O)O)C(=O)N[C@@H](CCCCN)C(=O)N[C@H](C(=O)N[C@@H](CC(C)C)C(=O)N[C@@H](CC(C)C)C(=O)N[C@@H](CCC(=O)O)C(=O)N[C@@H](CCC(N)=O)C(=O)N[C@@H](CCC(=O)O)C(=O)N[C@@H](CCCCN)C(=O)N[C@@H](CCC(N)=O)C(=O)N[C@@H](CCCCN)C(=O)NC(C)(C)C(=O)N[C@@H](CCC(N)=O)C(=O)N[C@@H](CCCNC(=N)N)C(=O)N[C@@H](CCC(=O)O)C(=O)N[C@@H](CCC(N)=O)C(=O)N[C@@H](C)C(=O)N[C@@H](CCC(=O)O)C(=O)N[C@H](C(=O)N[C@@H](CC(N)=O)C(=O)NC(C)(C)C(=O)N[C@@H](CCC(N)=O)C(=O)N[C@H](C(=O)N[C@@H](CC(C)C)C(=O)N[C@@H](C)C(=O)N[C@@H](CCC(N)=O)C(=O)N[C@H](C(N)=O)C(C)C)[C@@H](C)CC)[C@@H](C)O)[C@@H](C)CC)[C@@H](C)CC)C(C)C)C(C)C
EC50 [nM] (cAMP, CRF1R-overexpression CHO-K1 cells) [1]: > 250 nM
Emax (% I) (cAMP, 100% = Sauvagine at 100 nM) [1]: 15 % I
EC50 [nM] 0% HSA (cAMP, A7R5 rat aortic smooth muscle cells) [2]: 0.05 nM

B3: peptide of SEQ ID NO: 232 (peptide)
peptide: Ac-IVLSLD[dV]PIKLK([AEEA-γGlu-C20 diacid])KILLEQEKQKAQREQAETN[Aib]QILAQV-NH2
SMILES: CC[C@H](C)[C@H](NC(C)=O)C(=O)N[C@H](C(=O)N[C@@H](CC(C)C)C(=O)N[C@@H](CO)C(=O)N[C@@H](CC(C)C)C(=O)N[C@@H](CC(=O)O)C(=O)N[C@@H](C(=O)N1CCC[C@H]1C(=O)N[C@H](C(=O)N[C@@H](CCCCN)C(=O)N[C@@H](CC(C)C)C(=O)N[C@@H](CCCCNC(=O)COCCOCCNC(=O)CC[C@H](NC(=O)CCCCCCCCCCCCCCCCCCC(=O)O)C(=O)O)C(=O)N[C@@H](CCCCN)C(=O)N[C@H](C(=O)N[C@@H](CC(C)C)C(=O)N[C@@H](CC(C)C)C(=O)N[C@@H](CCC(=O)O)C(=O)N[C@@H](CCC(N)=O)C(=O)N[C@@H](CCC(=O)O)C(=O)N[C@@H](CCCCN)C(=O)N[C@@H](CCC(N)=O)C(=O)N[C@@H](CCCCN)C(=O)N[C@@H](C)C(=O)N[C@@H](CCC(N)=O)C(=O)N[C@@H](CCCNC(=N)N)C(=O)N[C@@H](CCC(=O)O)C(=O)N[C@@H](CCC(N)=O)C(=O)N[C@@H](C)C(=O)N[C@@H](CCC(=O)O)C(=O)N[C@H](C(=O)N[C@@H](CC(N)=O)C(=O)NC(C)(C)C(=O)N[C@@H](CCC(N)=O)C(=O)N[C@H](C(=O)N[C@@H](CC(C)C)C(=O)N[C@@H](C)C(=O)N[C@@H](CCC(N)=O)C(=O)N[C@H](C(N)=O)C(C)C)[C@@H](C)CC)[C@@H](C)O)[C@@H](C)CC)[C@@H](C)CC)C(C)C)C(C)C
EC50 [nM] (cAMP, CRF1R-overexpression CHO-K1 cells) [1]: > 250 nM
Emax (% I) (cAMP, 100% = Sauvagine at 100 nM) [1]: 13 % I
EC50 [nM] 0% HSA (cAMP, A7R5 rat aortic smooth muscle cells) [2]: 0.4 nM

Second part, the binder after the results:

EC50 [nM] (cAMP, CRF1R-overexpression CHO-K1 cells) [1]: > 250 nM
Emax (% I) (cAMP, 100% = Sauvagine at 100 nM) [1]: 8 % I
EC50 [nM] 0% HSA (cAMP, A7R5 rat aortic smooth muscle cells) [2]: 0.37 nM
B1: peptide of SEQ ID NO: 233 (peptide)
peptide: [NMeI]VLSLD[dV]PIKLK([AEEA-γGlu-C20 diacid])KILLEQEKQKEQREQAETN[Aib]QILAQV-NH2
modifications: N-terminus assumed
SMILES: CC[C@H](C)[C@H](NC)C(=O)N[C@H](C(=O)N[C@@H](CC(C)C)C(=O)N[C@@H](CO)C(=O)N[C@@H](CC(C)C)C(=O)N[C@@H](CC(=O)O)C(=O)N[C@@H](C(=O)N1CCC[C@H]1C(=O)N[C@H](C(=O)N[C@@H](CCCCN)C(=O)N[C@@H](CC(C)C)C(=O)N[C@@H](CCCCNC(=O)COCCOCCNC(=O)CC[C@H](NC(=O)CCCCCCCCCCCCCCCCCCC(=O)O)C(=O)O)C(=O)N[C@@H](CCCCN)C(=O)N[C@H](C(=O)N[C@@H](CC(C)C)C(=O)N[C@@H](CC(C)C)C(=O)N[C@@H](CCC(=O)O)C(=O)N[C@@H](CCC(N)=O)C(=O)N[C@@H](CCC(=O)O)C(=O)N[C@@H](CCCCN)C(=O)N[C@@H](CCC(N)=O)C(=O)N[C@@H](CCCCN)C(=O)N[C@@H](CCC(=O)O)C(=O)N[C@@H](CCC(N)=O)C(=O)N[C@@H](CCCNC(=N)N)C(=O)N[C@@H](CCC(=O)O)C(=O)N[C@@H](CCC(N)=O)C(=O)N[C@@H](C)C(=O)N[C@@H](CCC(=O)O)C(=O)N[C@H](C(=O)N[C@@H](CC(N)=O)C(=O)NC(C)(C)C(=O)N[C@@H](CCC(N)=O)C(=O)N[C@H](C(=O)N[C@@H](CC(C)C)C(=O)N[C@@H](C)C(=O)N[C@@H](CCC(N)=O)C(=O)N[C@H](C(N)=O)C(C)C)[C@@H](C)CC)[C@@H](C)O)[C@@H](C)CC)[C@@H](C)CC)C(C)C)C(C)C

EC50 [nM] (cAMP, CRF1R-overexpression CHO-K1 cells) [1]: > 250 nM
Emax (% I) (cAMP, 100% = Sauvagine at 100 nM) [1]: 30 % I
EC50 [nM] 0% HSA (cAMP, A7R5 rat aortic smooth muscle cells) [2]: 0.11 nM
B4: peptide of SEQ ID NO: 230 (peptide)
peptide: Ac-IVLSLD[dV]PIKLK([AEEA-γGlu-C20 diacid])KILLEQEKQKKQREQAETN[Aib]QILAQV-NH2
SMILES: CC[C@H](C)[C@H](NC(C)=O)C(=O)N[C@H](C(=O)N[C@@H](CC(C)C)C(=O)N[C@@H](CO)C(=O)N[C@@H](CC(C)C)C(=O)N[C@@H](CC(=O)O)C(=O)N[C@@H](C(=O)N1CCC[C@H]1C(=O)N[C@H](C(=O)N[C@@H](CCCCN)C(=O)N[C@@H](CC(C)C)C(=O)N[C@@H](CCCCNC(=O)COCCOCCNC(=O)CC[C@H](NC(=O)CCCCCCCCCCCCCCCCCCC(=O)O)C(=O)O)C(=O)N[C@@H](CCCCN)C(=O)N[C@H](C(=O)N[C@@H](CC(C)C)C(=O)N[C@@H](CC(C)C)C(=O)N[C@@H](CCC(=O)O)C(=O)N[C@@H](CCC(N)=O)C(=O)N[C@@H](CCC(=O)O)C(=O)N[C@@H](CCCCN)C(=O)N[C@@H](CCC(N)=O)C(=O)N[C@@H](CCCCN)C(=O)N[C@@H](CCCCN)C(=O)N[C@@H](CCC(N)=O)C(=O)N[C@@H](CCCNC(=N)N)C(=O)N[C@@H](CCC(=O)O)C(=O)N[C@@H](CCC(N)=O)C(=O)N[C@@H](C)C(=O)N[C@@H](CCC(=O)O)C(=O)N[C@H](C(=O)N[C@@H](CC(N)=O)C(=O)NC(C)(C)C(=O)N[C@@H](CCC(N)=O)C(=O)N[C@H](C(=O)N[C@@H](CC(C)C)C(=O)N[C@@H](C)C(=O)N[C@@H](CCC(N)=O)C(=O)N[C@H](C(N)=O)C(C)C)[C@@H](C)CC)[C@@H](C)O)[C@@H](C)CC)[C@@H](C)CC)C(C)C)C(C)C

EC50 [nM] (cAMP, CRF1R-overexpression CHO-K1 cells) [1]: > 250 nM
Emax (% I) (cAMP, 100% = Sauvagine at 100 nM) [1]: 10 % I
EC50 [nM] 0% HSA (cAMP, A7R5 rat aortic smooth muscle cells) [2]: 1.32 nM
B5: peptide of SEQ ID NO: 231 (peptide)
peptide: Ac-IVLSLD[dV]PIKLK([AEEA-γGlu-C20 diacid])KILLEQEKQKEQREQAETN[Aib]QILAQV-NH2
SMILES: CC[C@H](C)[C@H](NC(C)=O)C(=O)N[C@H](C(=O)N[C@@H](CC(C)C)C(=O)N[C@@H](CO)C(=O)N[C@@H](CC(C)C)C(=O)N[C@@H](CC(=O)O)C(=O)N[C@@H](C(=O)N1CCC[C@H]1C(=O)N[C@H](C(=O)N[C@@H](CCCCN)C(=O)N[C@@H](CC(C)C)C(=O)N[C@@H](CCCCNC(=O)COCCOCCNC(=O)CC[C@H](NC(=O)CCCCCCCCCCCCCCCCCCC(=O)O)C(=O)O)C(=O)N[C@@H](CCCCN)C(=O)N[C@H](C(=O)N[C@@H](CC(C)C)C(=O)N[C@@H](CC(C)C)C(=O)N[C@@H](CCC(=O)O)C(=O)N[C@@H](CCC(N)=O)C(=O)N[C@@H](CCC(=O)O)C(=O)N[C@@H](CCCCN)C(=O)N[C@@H](CCC(N)=O)C(=O)N[C@@H](CCCCN)C(=O)N[C@@H](CCC(=O)O)C(=O)N[C@@H](CCC(N)=O)C(=O)N[C@@H](CCCNC(=N)N)C(=O)N[C@@H](CCC(=O)O)C(=O)N[C@@H](CCC(N)=O)C(=O)N[C@@H](C)C(=O)N[C@@H](CCC(=O)O)C(=O)N[C@H](C(=O)N[C@@H](CC(N)=O)C(=O)NC(C)(C)C(=O)N[C@@H](CCC(N)=O)C(=O)N[C@H](C(=O)N[C@@H](CC(C)C)C(=O)N[C@@H](C)C(=O)N[C@@H](CCC(N)=O)C(=O)N[C@H](C(N)=O)C(C)C)[C@@H](C)CC)[C@@H](C)O)[C@@H](C)CC)[C@@H](C)CC)C(C)C)C(C)C
